# T1: human 5T4 ectodomain Fc fusion protein (Homo sapiens, UniProt Q13641)
# T1 construct: Human; 100; 1-355; made in house; host or cells: COS-1 cells (transient)
# T1 sequence (Q13641 32-355): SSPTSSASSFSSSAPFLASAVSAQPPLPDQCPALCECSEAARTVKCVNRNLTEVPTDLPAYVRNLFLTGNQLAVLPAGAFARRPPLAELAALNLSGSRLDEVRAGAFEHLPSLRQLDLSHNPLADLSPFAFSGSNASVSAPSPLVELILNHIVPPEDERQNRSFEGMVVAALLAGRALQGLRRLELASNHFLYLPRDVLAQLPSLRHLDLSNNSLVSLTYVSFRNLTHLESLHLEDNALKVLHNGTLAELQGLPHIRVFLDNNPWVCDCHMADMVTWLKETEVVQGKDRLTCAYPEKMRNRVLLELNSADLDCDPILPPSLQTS
# Target: T1, human 5T4 ectodomain Fc fusion protein
# Assay: Competitive binding assay with biotinylated humanized H8 antibody
# Conditions: FIGS. 6A-6B
# From the text: FIGS. 6A-6B show graphical results of competitive binding of humanized H8 and each of the indicated antibodies to human 5T4 ectodomain Fc fusion protein. HuH8, humanized H8 antibody; ChiA1, chimeric A1 antibody; ChiA1+C67F, chimeric A1 antibody bearing C67F mutation; ChiA2, chimeric A2 antibody; muA2, murine A2 antibody; ChiA3, chimeric A3 antibody; ChiA3+C91Y, chimeric A3 antibody bearing C91Y mutation, muA3, murine A3 antibody; No Ab, no antibody (control).
# In addition to direct binding assays, competitive binding assays were performed using biotinylated humanized H8 antibody and each of the A1, A2, or A3 antibodies. Inhibition of binding to human 5T4 was not observed, supporting that each of A1, A2, and A3 binds to a 5T4 epitope that is distinct from that bound by the H8 antibody.
molecule,measurement,value
"A2: murine anti-5T4 monoclonal antibody (IgG2b heavy chain); VH residues 19-135 of SEQ ID NO:6, VL residues 23-130 of SEQ ID NO:8 (antibody, listed as Mus musculus, V domains shown, (1)..(18) leader sequence; (19)..(135) heavy chain variable region; (44)..(53) CDR1; (68)..(84) CDR2; (117)..(124) CDR3; (1)..(22) leader sequence; (23)..(130) light chain variable region; (46)..(56) CDR1; (73)..(79) CDR2; (112)..(120) CDR3) VH: MEWRIFLFILSGTAGVHSQVQLQQSRPELVKPGASVKMSCKASGYTFTDYVISWVKQRTGQGLEWIGEIYPGSNSIYYNEKFKGRATLTADKSSSTAYMQLSSLTSEDSAVYFCAMGGNYGFDYWGQGTTLTVSS VL: MDFQVQIFSFLLISASVIMSRGQIVLTQSPAIMSASLGERVTLTCTASSSVNSNYLHWYQQKPGSSPKLWIYSTSNLASGVPARFSGSGSGTSYSLTISSMEAEDAATYYCHQYHRSPLTFGAGTKLELK",inhibition of binding of biotinylated humanized H8 to human 5T4,not observed
